Laboratory results as given in PMC5124861, “Transition steps in peroxide reduction and a molecular switch for peroxide robustness of prokaryotic peroxiredoxins” (Scientific Reports, 2016).

Molecular target: the molecule itself
Experiment: crystal structure; oxidized EcAhpC_(1-186)-YFSKHN; hanging-drop vapour diffusion, 1.6 M ammonium sulfate, 100 mM MES pH 6.5, 5% dioxane, 4.5 mg/ml protein, 291 K; 2.7 Å; decamer in the asymmetric unit

B1: chimeric EcAhpC_(1-186)-YFSKHN (enzyme, E. coli | human)
chain: MSLINTKIKPFKNQAFKNGEFIEITEKDTEGRWSVFFFYPADFTFVCPTELGDVADHYEELQKLGVDVYAVSTDTHFTHKAWHSSSETIAKIKYAMIGDPTGALTRNFDNMREDEGLADRATFVVDPQGIIQAIEVTAEGIGRDASDLLRKIKAAQYVASHPGEVCPAKWKEGEATLAPSLDLVGKYFSKHN
notes: C-terminal YFSKHN segment (helix with the YF motif) of human Prx2; Decamer (alpha2)5 in the crystal; In the oxidized form an intermolecular disulphide joins C47 and C166' of the two subunits of each dimer; the reduced form came from soaking oxidized crystals in 1 mM TCEP; The forward primer (NcoI, ATG GCA ATG TCC) may add residues before M1; also called chimeric Prx; Ox; copies: 10
- stoichiometry N: 10
